{
  "source": "paper PMC12098869",
  "about": "“An mRNA-display derived cyclic peptide scaffold reveals the substrate binding interactions of an N-terminal cysteine oxidase” (Nature Communications, 2025)",
  "binders": {"B1": {"name": "RGS5(2-15), synthetic peptide corresponding to the methionine excised N-terminus of RGS5, residues 2 to 15 (peptide, UniProt O15539 2-15, looked up)", "peptide": "CKGLAALPHSCLER", "notes": "regulator of G-protein signalling 5 (RGS5), residues 2 to 15 (N-terminal Cys exposed); UniProt O15539 is printed for the full-length human protein; also called 14-mer RGS5; source: synthetic peptide"}},
  "key": {"[1]": {"target": "T1, ADO-F101A, N-terminally His-tagged and biotinylated (human, UniProt Q96SZ5 1-270, F101A, biotin (biotinylated during expression))", "T1 construct": "2-aminoethanethiol dioxygenase (ADO), human, UniProt Q96SZ5, full length, site-directed mutant; source: E. coli Rosetta2(DE3), purified (Ni-NTA, SEC); not shown: biotinylation tag (from the vector pQE80L-Navi), N-terminal, kept", "T1 sequence (looked up)": "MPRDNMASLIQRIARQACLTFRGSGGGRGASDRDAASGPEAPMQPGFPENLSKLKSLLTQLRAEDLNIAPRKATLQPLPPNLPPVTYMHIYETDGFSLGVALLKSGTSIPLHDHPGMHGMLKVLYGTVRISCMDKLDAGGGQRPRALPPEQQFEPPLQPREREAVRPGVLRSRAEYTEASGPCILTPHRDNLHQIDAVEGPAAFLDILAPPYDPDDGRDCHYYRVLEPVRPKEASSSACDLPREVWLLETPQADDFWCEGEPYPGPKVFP", "experiment": "SPR; biotinylated ADO or ADO mutant immobilised on a Biotin CAP chip (~2500-3000 RU), substrate peptide injected; Biacore T200, 4 °C; 20 mM HEPES pH 7.5, 500 mM NaCl, 10 mM DTT, 0.1% tween-20; 50 µL/minute; multi-cycle or single-cycle mode not given; each cell is one of three independent measurements", "settings": "both partners purified"}, "[2]": {"target": "T2, ADO-D206E, N-terminally His-tagged and biotinylated (human, UniProt Q96SZ5 1-270, D206E, biotin (biotinylated during expression))", "T2 construct": "2-aminoethanethiol dioxygenase (ADO), human, UniProt Q96SZ5, full length, site-directed mutant; source: E. coli Rosetta2(DE3), purified (Ni-NTA, SEC); not shown: biotinylation tag (from the vector pQE80L-Navi), N-terminal, kept", "T2 sequence (looked up)": "T1 sequence (looked up) with A101F, D206E", "experiment": "SPR; biotinylated ADO or ADO mutant immobilised on a Biotin CAP chip (~2500-3000 RU), substrate peptide injected; Biacore T200, 4 °C; 20 mM HEPES pH 7.5, 500 mM NaCl, 10 mM DTT, 0.1% tween-20; 50 µL/minute; multi-cycle or single-cycle mode not given; each cell is one of three independent measurements", "settings": "both partners purified"}},
  "note": "Substitutions are numbered along the chain they refer to. Values joined by “and” are separate entries in the source; they are usually repeats but may differ in a detail not shown here. Equal entries are not always repeated.",
  "data": [
    {"binder": "B1", "values": [
      {"measurement": "Kd", "setting": "[1]", "result": "42.7 µM and 46.3 µM and 52.3 µM"},
      {"measurement": "Kd", "setting": "[2]", "result": "1.19 µM and 0.997 µM and 1.06 µM"}
    ]}
  ]
}
